test: soluble on expression in E. coli; label from the status in PepcDB or PDB records

Sequence | soluble on expression in E. coli
MASISRFRGCLAGALLGDCVGAVYEAHDTVSLASVLSHVESLEPDPGTPGSARTETLYYTDDTAMTRALVQSLLAKEAFDEVDMAHRFAQEYKKDPDRGYGAGVITVFKKLLNPKCRDVYEPARAQFNGKGSYGNGGAMRVAGISLAYSSVQDVQKFARLSAQLTHASSLGYNGAILQALAVHLALQGVSSSEHFLEQLLGHMEELEGDAQSVLDAKELGMEERPYSSRLKKVGELLDQDVVSREEVVSELGNGIAAFESVPTAIYCFLRCMEPHPEIPSTFNSLQRTLIYSISLGGDTDTIATMAGAIAGAYYGMEQVPESWQQSCEGFEETDVLAQSLHRVFQES | soluble
MSLNKNEKVKIAYVGIGNRGQQIIEDFARTGMVEVVALCDVDMGAKHTQKVIGMYPKAKQFRDFRQMFDKAGKEFDAVAIATPDHSHFPISMLALASGKHVYVEKPLARTFYEAELLMQAALKRPNLATQVGNQGHSEANYFQFKAWMDAGIIKDVTAVTAHMNNEGHHHHHH | not soluble
MAHHHHHHMLRFRVRLPKGKEPVSMDLDGTTTWGSFVQSISSLTDVPCSQLRILSGFPPRPVEVGDGAASIASVLPGGGNVIVQVGEADVVKGKTEGRYVPPVDGKWHFVRRVCPSDNSCLFHAAAYVLRNKSRVDGPSLRKECADIVQAYPNVFNEKTILDRPNREYVDFIRNPNAWGGAIELMVLSFLTQTEIVALDLTSSNVLHFGEDNNYTVRAYVVFNGQHYDAIAMNPMFNSPQESEDQVLFSSTDAEVLNRARRFVADEAKKLRLR | soluble
MTPEAPYASLTEIEHLVQSVCKSYRETCQLRLEDLLRQRSNIFSREEVTGYQRKSMWEMWERCAHHLTEAIQYVVEFAKRLSGFMELCQNDQIVLLKAGAMEVVLVRMCRAYNADNRTVFFEGKYGGMELFRALGCSELISSIFDFSHSLSALHFSEDEIALYTALVLINAHRPGLQEKRKVEQLQYNLELAFHHHLCKTHRQSILAKLPPKGKLRSLCSQHVERLQIFQHLHPIVVQAAFPPLYKELFST | soluble
MERKSPSGKKFRSKPQLARYLGGSMDLSTFDFRTGKMLMSKMNKSRQRVRYDSSNQVKGKPDLNTALPVRQTASIFKQPVTKITNHPSNKVKSDPQKAVDQPRQLFWEKKLSGLNAFDIAEELVKTMDLPKGLQGVGPGCTDETLLSAIASALHTSTMPITGQLSAAVEKNPGVWLNTTQPLCKAFMVTDEDIRKQEELVQQVRKRLEEALMADMLAHVEELARDGEAPLDKACAEDDDEEDEEEEEEEPDPDPEMEHV | soluble
MAINNSAQKFIARNRAPRVQIEYDVEIYGSEKKIELPFVMAVLADLAGKPREELPPVTDRKFLDIDIDNFNERMKAIAPRVAFAVPNTLTGEGQLMVDITLENMDDFSPAQIARKVDALNQLLEARTQLANLQTYMDGKAGAENLVNKLLQDPTLLKTLANAPKSAATQQDVSADNESAE | not soluble
MHFELNQATHCKNHVVIHNELSPGIILNIACRKGSIDDKPTRFHKLNFKDPSYVIEFEDNYPNDETWYCLLSHGTRPKYWYDIQVYRQGIQPKCNQLRLWIARMDGIWFTRRYESPPGHVLDWKI | not soluble
MGSDKIHHHHHHMAVQFELYKTPMPKEKKNKTRYHARPVSFETVNTEKLAYRIHDRSTLRVSDIISTLEELKNEVAQCLLEGKKVHVDGLGFFQVTLSCEEEIRNPKDKRVHRVKLKAIKFKADKELKGELCHMKFQRSKIRPHSANLSEVEIDMKLTEYFAENQIITRKDFQYLCGMTQITAYRHIKRLMAEKKLQNKGTIYQPIYTPVPGNYRVSVDLKYKEQ | not soluble
MRKNILITGVHGYIGNALKDKLIEQGHQVDQINVRNQLWKSTSFKDYDVLIHTAALVHNNSPQARLSDYMQVNMLLTKQLAQKAKAEDVKQFIFMSTMAVYGKEGHVGKSDQVDTQTPMNPTTNYGISKKFAEQALQELISDSFKVAIVRPPMIYGAHCPGNFQRLMQLSKRLPIIPNINNQRSALYIKHLTAFIDQLISLEVTGVYHPQDSFYFDTSSVMYEIRRQSHRKTVLINMPSMLNKYFNKLSVFRKLFGNLIYSNTLYENNNALEIIPGKMSLVIADIMDETTTKDKA | not soluble
MSGRKFSFEVTKTSSAPAATLFRLVTDGGNWATWAKPIVAQSSWARRGDPAPGGIGAIRKLGMWPVFVQEETVEYEQDRRHVYKLVGARTPVQDYFGEVVLTPNASGGTDLRWSGSFTEKVRGTGPVMRAALGGAVRFFAGQLVKAAEREAVRR | soluble
MDEQVIKKVVEDVLKKVGIEQKEENKANRGEPVITNPGLTEFVGTALGDTIGLVIANVDASLHEKMGIDPKYRSIGIIGGRTGAGPQIMAADEAVKATNTEVVAIELPRDTKGGAGHGNLIIFGAEEVSDARRAVEVALKELRRTFGDVYVNEAGHLEFQYTARASYALQKAFGAPLGKAFGLIVGAPAAIGVLCCDTAVKAAEVEVIGYASPAKGTSMTNEAILFISGDSGAVRQAIIAAREVGLKLLSTLGEAPKSLSGEPYI | not soluble
DIGVWEYFPATDSLDWSDGVRRIHGVADEYEPSLDDALGFYHPDDRDKISKAVEQTIADREPYDIDLRIVRTDGDVRDVRAWGERVDDPQ | not soluble
MEAVDLAFANYAERFARSCKGDGWRRLVERAIRLYLTPVLGKKALPAINRTDVVSVFDNMPADQVANRRNVFAVLRRLFRWAVSRGDLDRSPMEGMLEHHHHHH | not soluble
MRLHIGGREKHPDWKIFDALERPEVNFVGNAADLSQFADDSIEAIYASHVLEHFHHSLGNELVSVLLEWRRVLLPNGKLYISVPDLQTLSWLFLSPMAGFQHRLQIMRMMFGGQVDQYDVHKVGFDCEILFTYLQAAKFSDYERVENFELFQDCSNLVFLGYPISLNVVAVKLEHHHHHH | not soluble
MGSDKIHHHHHHMSAGLTGIRVAVIGGDDREIYMIPELQKLGAYIVGVGFEKAAPIQGVTLLSSPLEAVEKADVLLFPMYGTDERGDVKAKYSETPIVLNKELLKAVSPKVPLFIGWARPALKSAAEMLGIQIVETANLDQLAILNSIPSAEGAIQMAMEASPITIHGSESFVLGLGRCGWTLARTLKGMGAHVTGVARKPADLARALEMGLEAVHFADLDEKIGKAELIFNTVPHLILDKVMLEQVNHEAVIIDIASLPGGTDFEYAKAKGIKAMLAPGLPGKVAPKAAGKILAQVYPQLILRHLTTKNASLKF | not soluble
MGSDKIHHHHHHMISYGELIRQIRQSKKISQKEVYTGVISKSYAIEFEKGTHAISSLLLEKIVAKLMVSMEEFFLMYHQEALPEKEDFWEAYARTCKTDEASAWESLYQKISLEKGKVNQVKSAAIKLELDHIKGKQVADKKAVQILENYLIEAVFWTLQDIFLFTRMMHYLPLKSRVPFYYKLLNTLDRYRHFERGRSISQSALASIMDDFIEKNEIEYMELMIKSLEKISEDCDGTYSKILCMYYRGIVRWREGEKREGSEEIEQAVAILRALGYENKAAEYETMYRQFARENNDIKTME | not soluble
MSLLEYLPPGVDTDRFRPDPAARAELRKRYRLGERPTVVCLSRLVPRKGQDTLVTALPSIRRRVDGAALVIVGGGPYLETLRKLAHDCGVADHVTFTGGVATDELPAHHALADVFAMPCRTRGAGMDVEGLGIVFLEASAAGVPVIAGNSGGAPETVQHNKTGLVVDGRSVDRVADAVAELLIDRDRAVAMGAAGREWVTAQWRWDTLAAKLAEGHHHHHH | not soluble
MTTTDVSWPKSLWHAVTGPGPGLPALHGAEEADVVVVGGGFSGLSTALHLREAGVDVAVVEAAEPGWGASGRNNGQVIPTLSRPDPEDIVAKHGAAGERLVGLIRDSASILFDVAKRHGVDAEQEQNGWVQPVHSPGRIKIAERRFRQWSKFGAPVELLSRDQVRDMLGSEAWFGGFWNRTGGHVNPLALARGLARAVLAQGGRIFARSPAVSIERRGDRWIVKTAQGEISGRALVVASNAYTGEFSKTLAPAIASEVMPVRSWQMATQPLSDNVRKTIIPGRQAMSDTHGELIFGRFDARNRFVTGGAIIRPFNQIATLKARVGKRLQRLWPQIGEVRFDYVWNGFIGMTTDYLPHIHRLGPNAYGWTGCNGRGVALSVALGRELSKAVRGVTDGELALPFTEPTPIPANELLRPFAPLMMVLYRHRDAKEIGLEHHHHHH | not soluble
MGSDKIHHHHHHMNLSNDSLNKSDISPAVAQQAVGWLLEMQEGALDARRQHAWQSWLNGNSEHQRAWAHMQRVNQRLSGLSSPLAHAALGAPKSAGRRHALKLLLLLGAGSMAGWSLREQIALQPLLADYNSGVGEQRKVALSDGSRVQLNTASAVDVRFDAQQRLIKLLQGELLMSASADARPLNLLSAQGTVRASTGSSRFNLRQLDGRTQLAVFAGAIEVAPANKSGPGLMLRASQQVTFGRDAWDSVRTVDANSGAWADGMLVASRMKLSDFLAELGRYRRGRLNCDANVADLLISGSYPLADSERILDMLQLALPVRVQRFTRYWVNVQARV | not soluble
MSLTVVLIVDDHHLIRAGAKNLLEGAFSGMRVEGAETVSDALAFLEADNTVDLILLDVNLPDAEAIDGLVRLKRFDPSNAVALISGETDHELIRAALEAGADGFIPKSADPQVLIHAVSLILEGEIFLPRSYLQGGRMAEVATPLDSSERPEQNLTPRQRDVFELMCKGLANKEIARLLDLSESTVKSHVSAIFKQIGTTSRSKTIAIFRQEGVALPSASEDEGHHHHHH | soluble
SDSTAGTDAVAVGGTFQFHSPDGKMEIFYDEADRQQLPDIGGDSLMEEGTQINLSDFENQVVILNAWGQWCAPCRSESDDLQIIHEELQAAGNGDTPGGTVLGINVRDYSRDIAQDFVTDNGLDYPSIYDPPFMTAASLGGVPASVIPTTIVLDKQHRPAAVFLREVTSKDVLDVALPLVDEA | soluble
MGSDKIHHHHHHMEIKETYDFSSIVDLWNKNIGTVYPMNLELFKQNYINDRQRKKIMGAFNGEILIGFVIYKQWTYKSGSLKPNHKIGYINSIIVDINFRHQGIGTKLLDAAEEELINSGVKILRCGSDTYHFFPGIPLECLPSEEFFLVRGYKMQDYFYDLIGDVSKVDFKKPSIKDGFKVNVMKPEDRKGLFEFLEKSFSGRWLEEFIEFFQVGMKERDIVLIKYKTSVIGFSHIYDNKSSFIGPPIYWKALLGHNYGGLGPIGIDKTYRKQGLGRLLLYESLQILKKREVKKMVIDWTEKDIINFYGRFNFMPWKAYRKATKEVKDGKG | not soluble
MGSDKIHHHHHHMINSRARRNLIAQDSGEHRHDFPQILIGWRGEIECEFSKGSGRLNNGLVGIVPNAAEHLFRGLNNNSELLVIDVVLEDPYIQAMEQACNLSFSETLFKQPHFVSLAPEMLPLLEYSANQLLLDKKTATPQLNCQLVSLFMTQLSQMYSPEIKSSAINQRIEATRLNDIIDQRLARPPNNTELANLLHLSESHFYCICQQQFGVSPQKYVMRRRMQRAKFLLLNSKIPLSALASELGFSDVSSFSRAYKKYYQQPPGQTRTLFQLGLNANHASIRK | not soluble
PEKPAKTQKTSLDEALQWRDSLDKLLQNNYGLASFKSFLKSEFSEENLEFWIACEDYKKIKSPAKMAEKAKQIYEEFIQTEAPKEVNIDHFTKDITMKNLVEPSLSSFDMAQKRIHALMEKDSLPRFVRSEFYQELI | soluble
MASMTGGQQMGRGMAGPEIVKLKKILREKAVPPGTEVPLDVMRKGMEKVAFKAADDIQVEQVTVAGCAAEWVRAPGCQAGKAILYLHGGGYVMGSINTHRSMVGEISRASQAAALLLDYRLAPEHPFPAAVEDGVAAYRWLLDQGFKPQHLSISGDSAGGGLVLAVLVSARDQGLPMPASAIPISPWADMTCTNDSFKTRAEADPMVAPGGINKMAARYLNGADAKHPYASPNFANLKGLPPLLIHVGRDEVLLDDSIKLDAKAKADGVKSTLEIWDDMIHVWHAFHPMLPEGKQAIVRVGEFMREQWAALAAALEHHHHHH | soluble

Source: the DeepSol protein solubility set
